Data on 4 molecules can be found in patent US20170298119A1.

The chains are these.
B1: ZC1 (antibody, V domains shown)
VH: QVQLVQSGAEVKKPGASVKVSCKASGYTFTSYGISWVRQATGQGLEWMGVIYPRSGNTYYAEKFRGRVTMTADKSISTAYMELSSLRSEDTAVYYCARENYGSVYWGQGTLVTVSS
VL: EIVMTQSPATLSVSPGERATLSCRASQSVGTAVAWYQQKPGQAPRLLIYSASNRYTGIPARFSGSGSGTEFTLTISSLQSEDFADYFCQQFYNYPFTFGGGTKVEIK
B2: ZC9 (antibody, V domains shown)
VH: B1 VH with T41P, E62Q, F64L, R65Q, A72T, K74T, I76T, S84R, E89D
VL: B1 VL
B3: ZC5 (antibody, V domains shown)
VH: QVQLVQSGAEVKKPGASVKVSCKASGYSFTTYGISWVRQAPGQGLEWMGVIYPRSGNTYYAQKLQGRVTMTTDTSTSTAYMELRSLRSDDTAVYYCARENYGSVYWGQGTLVTVSS
VL: B1 VL
B4: ZC6 (antibody, V domains shown)
VH: B3 VH
VL: DIQMTQSPSSLSASVGDRVTITCKASQSVGTAVAWYQQKPGKAPKLLIYSASNRYTGVPSRFSGSGSGTDFTLTISSLQPEDFATYFCQQFSNYPFTFGGGTKVEIK

Numbering of substitutions follows the chain as printed. Some results are limits rather than exact numbers.

This assay addresses ZIKV strain MR766 (E protein on infectious virus) (Zika virus strain MR766) (UniProt Q32ZE1). Briefly: cell-based or functional assay.
The molecule B1 came in with an in vitro neutralization EC50 (foci counted on Vero cells) below 0.02 µg/mL.
Consider B2, for which the in vitro neutralization EC50 (foci counted on Vero cells) was below 0.02 µg/mL.
In turn, B3 had an in vitro neutralization EC50 (foci counted on Vero cells) below 0.02 µg/mL.
B4 showed an in vitro neutralization EC50 (foci counted on Vero cells) below 0.02 µg/mL.
